B1: CCDC6 (parent)
chain: ASVTIQARAEQEEEFISNTLFKKI

Variants of: B1
Assay: protein stability index of a GFP-peptide fusion (GPS, HEK-293T) (PSI 1-6); higher = more stable
Settings: c terminus: a fixed tail appended
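Note: lentivirally expressed fusions sorted by FACS into six bins by GFP to DsRed ratio, PSI derived from sequencing read proportions per bin multiplied by bin number.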

Protein stability index of substitutions, site by site:
I16: V 4.05, H 4.28, P 4.35, M 3.82, E 4.53, K 4.53, Q 4.66, S 4.25, G 4.43, R 3.92, N 4.57, A 3.84, C 4.11, T 3.95, D 4.34, W 2.92, Y 3.42, L 3.94, F 3.49
F21: C 4.76, G 4.71, D 4.87, M 4.46, K 4.7, H 3.88, R 4.54, T 4.49, P 4.52, L 4.78, W 3.39, E 4.93, V 4.39, I 3.58, A 4.66, Y 3.72, S 4.37, Q 5.01, N 4.42
K23: I 2.52, D 3.21, C 2.96, M 2.35, S 3.04, P 3.19, E 3.89, G 3.21, T 3.34, V 2.73, Q 3.17, F 2.01, N 3.37, R 3.28, L 2.11, H 3.08, A 3.23
T19: V 3.21, Q 3.86, I 2.94, L 2.82, D 3.77, W 3.13, S 3.47, H 3.36, F 2.72, P 4, N 3.12, A 3.49, E 3.81, K 3.72, M 3.03, Y 2.96, C 3.25, G 4.04, R 3.84
K22: M 1.74, S 3.64, T 2.86, F 1.94, R 2.92, L 2.19, G 3.49, E 3.74, Y 2.21, W 2.1, V 1.91, H 3.5, P 4.13, C 2.17, N 3.98, D 3.49, A 2.87, Q 3.7
F15: K 4.13, H 3.72, Q 4.46, A 4.49, T 4.52, Y 3.78, C 4.19, W 2.98, V 4.52, N 4.65, L 3.73, G 4.4, E 4.69, S 4.03, P 4.61, M 3.67, D 4.68, I 4.18, R 4.09
N18: C 2.79, W 2.43, L 2.56, T 3.75, P 3.96, S 3.54, M 2.34, K 3.87, Q 3.42, Y 2.07, G 3.6, H 3.41, V 1.5, D 4.34, R 3.07, A 3.27, E 4.09, F 2.27
L20: A 3.94, R 4.09, Q 4.62, D 4.76, H 4, F 3.46, C 3.9, M 4.44, V 3.82, W 2.91, S 4.68, T 4.64, I 3.89, P 4.14, Y 3.69, N 4.42, G 4.66, K 4.15, E 4.51
S17: I 2.85, F 2.98, P 3.92, L 3.35, V 3.18, K 4.03, H 3.58, Y 2.9, G 3.5, R 3.26, Q 3.77, W 2.54, T 4.27, A 3.64, E 3.9, M 3.06, C 2.8, D 4.38, N 3.59
